Assay results as given in publication PMC12746149, “Gluebodies Offer a Route To Improve Crystal Reliability and Diversity through Transferable Nanobody Mutations That Introduce Constitutive Close Contacts” (ACS Central Science, 2025).
Read-outs that look alike come from different tables or passages of the source.

Tests used:
[1] = target: T1, truncated RECQL5 protein (11-453) (UniProt O94762); assay: SEC; purified nanobody variants run with RECQL5 on size exclusion chromatography; comigration; conditions: both partners purified
T1 construct: RECQL5, residues 11-453, in pNIC-Bsa4; source: E. coli BL21-DE3-pRARE, purified (Ni-NTA, TEV cleavage, reverse Ni-NTA); not shown: His6, N-terminal, cleaved
T1 sequence (O94762 11-453): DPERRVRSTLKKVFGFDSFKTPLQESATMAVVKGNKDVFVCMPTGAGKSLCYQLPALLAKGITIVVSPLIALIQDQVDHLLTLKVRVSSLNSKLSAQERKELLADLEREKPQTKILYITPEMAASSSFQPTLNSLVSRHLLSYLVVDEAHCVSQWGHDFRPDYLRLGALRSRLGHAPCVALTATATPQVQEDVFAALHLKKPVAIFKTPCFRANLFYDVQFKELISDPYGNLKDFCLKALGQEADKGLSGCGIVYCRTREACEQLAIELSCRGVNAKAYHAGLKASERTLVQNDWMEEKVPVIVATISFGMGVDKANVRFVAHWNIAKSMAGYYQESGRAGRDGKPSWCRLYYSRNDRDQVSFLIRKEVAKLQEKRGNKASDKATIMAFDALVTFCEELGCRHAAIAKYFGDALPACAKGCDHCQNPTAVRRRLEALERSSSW

[2] = target: T1, truncated RECQL5 protein (11-453); assay: crystal structure; RECQL5 and nanobody mixed 1:1.5, complex isolated by SEC, Hampton Index screen; molecular replacement with PDB 5LB8 and chain A of 2X1O; conditions: both partners purified
[3] = target: T2, MPP8 chromodomain (residues 53-117) (UniProt Q99549); assay: crystal structure; MPP8 and 3A02 gluebody combined 1:1.2, complex isolated on Superdex 75 in 20 mM Hepes pH 7.5, 80 mM NaCl; vapor diffusion at 18 °C, 100 mM sodium acetate, 25% PEG 3000; conditions: both partners purified
T2 construct: MPP8, the region corresponding to the chromodomain, residues 53-117, in a modified pET30 vector; not shown: His tag, N-terminal, cleaved
T2 sequence (Q99549 53-117): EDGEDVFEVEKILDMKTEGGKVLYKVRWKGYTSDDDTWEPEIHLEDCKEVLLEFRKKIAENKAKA

[4] = target: MAGEB1 (UniProt P43366)
[5] = target: T3, MAGEB1 (UniProt P43366); assay: crystal structure; nanobody-target complex in two commercial coarse screens (192 conditions, two temperatures); conditions: both partners purified
T3 construct: MAGEB1
T3 sequence (P43366 whole entry): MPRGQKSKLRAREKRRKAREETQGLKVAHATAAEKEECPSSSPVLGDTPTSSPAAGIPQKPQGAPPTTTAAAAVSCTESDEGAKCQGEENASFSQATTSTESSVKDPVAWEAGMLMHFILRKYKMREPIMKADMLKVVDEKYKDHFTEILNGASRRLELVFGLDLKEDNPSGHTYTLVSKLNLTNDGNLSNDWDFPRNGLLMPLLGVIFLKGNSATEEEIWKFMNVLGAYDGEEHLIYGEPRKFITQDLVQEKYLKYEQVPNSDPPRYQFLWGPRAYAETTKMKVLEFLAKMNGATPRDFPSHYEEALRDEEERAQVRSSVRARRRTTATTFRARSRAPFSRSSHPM

Binder | binding result [2] | other results
RECQL5 nanobody variant G1-001 (VHH, the mutated chain is in PDB 7ZML; numbers count on: IMGT numbering; six-residue tail left after TEV cleavage of the C-terminal 6xHis tag; vector pNIC-CTH0; source: E. coli KRX, purified (Ni-NTA, TEV cleavage, reverse Ni-NTA); not shown: His6, C-terminal, cleaved) VHH: QVQLQESGGGLVQAGGSLRLSCAASGSIFSINRMGWYRQAPGKQRELVAAITSGGSTNYAYSVKGRFTISRDNAKNTVYLQMNSLKPEDTAIYYCEAYGTYTLAPTGEGEYDDYWGQGTQVTVSA |  | binding result [1]: binds
RECQL5 nanobody variant G2-001 (VHH, as the chain of m3 (G1-001, D69Y) with S7N:L12C; the mutated chain is in PDB 7ZMM; numbers count on: IMGT numbering; six-residue tail left after TEV cleavage of the C-terminal 6xHis tag; vector pNIC-CTH0; made by mutagenesis from G1-001; source: E. coli KRX, purified (Ni-NTA, TEV cleavage, reverse Ni-NTA); not shown: His6, C-terminal, cleaved) VHH: QVQLQENGGGCVQAGGSLRLSCAASGSIFSINRMGWYRQAPGKQRELVAAITSGGSTNYAYSVKGRFTISRDNAKNTVYLQMNSLKPEDTAIYYCEAYGTYTLAPTGEGEYDDYWGQGTQVTVSA | binds | 
3A02 gluebody (Nb 3A02 nanobody with the Gluebody mutations S7N, Q14K and T125M) (VHH, Nb 3A02 with three stated mutations; the mutated chain is in PDB 9H77; also called Gb; not shown: His tag, N-terminal, cleaved) VHH: QVQLQENGGGLVKPGGSLRLSCAASGFTLSDYVMTWVRQAPGKGPEWVSRISAGGSTRYVDSVKGRFTISRDNAKNTMYLQMNSLKPEDTAVYYCARGSTLFSTNWDYRGQGTQVMVS |  | binding result [3]: binds
RECQL5 nanobody variant G4-043 (VHH, the mutated chain is in PDB 7ZMS; numbers count on: IMGT numbering; G4 and G5 constructs were amplified from the synthesised DNA fragments with a different set of primers; source: E. coli KRX, purified (Ni-NTA, TEV cleavage, reverse Ni-NTA); not shown: MBP (inferred from the G3 scaffold), N-terminal, cleaved; His6 (inferred from the G3 scaffold), N-terminal, cleaved) VHH: QVQLVENGGGCVQATGSLRLSCAASGSIFSINRMTWYRQAPGKEREWVAAITSGGSTNYADSVKGRFTISRDSAKGTVYLQMNSLKPEDTAVYYCEAYGTYTLAPTGEGEYDDYWGQGTQVMVS | binds | 
RECQL5 nanobody variant G2*-006 (VHH, the mutated chain is in PDB 7ZMQ; source: E. coli KRX, purified (Ni-NTA, TEV cleavage, reverse Ni-NTA); not shown: MBP (from the vector pNIC-MBP2-LIC), N-terminal, cleaved; His6 (from the vector pNIC-MBP2-LIC), N-terminal, cleaved) VHH: QVQLVENGGGNVQAGGSLRLSCAASGSIFSINRMTWYRQAPGKEREWVAAITSGGSTNYAYSVKGRFTISRDNAKNTVYLQMNSLKPEDTAVYYCEAYGTYTLAPTGEGEYDDYWGQGTQVTVS | binds | 
RECQL5 nanobody variant G3-048 (VHH, the mutated chain is in PDB 7ZMN; numbers count on: IMGT numbering; synthesised DNA in pNIC-MBP2-LIC; no ENLYFQ tail; source: E. coli KRX, purified (Ni-NTA, TEV cleavage, reverse Ni-NTA); not shown: MBP, N-terminal, cleaved; His6, N-terminal, cleaved) VHH: QVQLVENGGGCVQATGSLRLSCAASGSIFSINRMTWYRQAPGKEREWVAAITSGGSTNYADSVKGRFTISRDSAKGTVYLQMNSLKPEDTAVYYCEAYGTYTLAPTGEGEYDDYWGQGTQVTVS | binds | 
RECQL5 nanobody variant G2*-011 (VHH, the mutated chain is in PDB 7ZMR; source: E. coli KRX, purified (Ni-NTA, TEV cleavage, reverse Ni-NTA); not shown: MBP (from the vector pNIC-MBP2-LIC), N-terminal, cleaved; His6 (from the vector pNIC-MBP2-LIC), N-terminal, cleaved) VHH: QVQLVENGGGCVQAGGSLKLSCAASGSIFSINRMTWYRQAPGKEREWVAAITSGGSTNYAYSVKGRFTISRDNAKNTVYLQMNSLKPEDTAVYYCEAYGTYTLAPTGEGEYDDYWGQGTQVTVS | binds | 
RECQL5 nanobody variant G3-052 (VHH, the mutated chain is in PDB 7ZMO; numbers count on: IMGT numbering; synthesised DNA in pNIC-MBP2-LIC; no ENLYFQ tail; source: E. coli KRX, purified (Ni-NTA, TEV cleavage, reverse Ni-NTA); not shown: MBP, N-terminal, cleaved; His6, N-terminal, cleaved) VHH: QVQLVENGGGCVQAGGSLRLSCAASGSIFSINRMTWYRQAPGKEREWVAAITSGGSTNYADSVKGRFTISRDSAKGTVYLYMNSLKPEDTAVYYCEAYGTYTLAPTGEGEYDDYWGQGTQVTVS | binds | 
YNMAGEB1A-c001 (VHH) VHH: QVQLQESGGGLVQAGGSLRLSCAASGFTFDDYAIGWFRQVPGKEREGVSCTSSSVGSTYYADSVKGRFTITSDNAKNTVYLQMNSLKPEDTAVYYCAADSYPYGSTWCRPPFFASWGQGTQVTVS |  | binding result [4]: binds
nanobody of the MAGEB1 complex (PDB 6R7T) (VHH, naïve (not engineered) nanobody scaffold) VHH: QVQLQESGGGLVQPGGSLRLSCAASGFTFSTYAMSWFRQAPGKGLEWVASINSSGGGIQSYADSVKGRFTISRDNAKNTLYLQMNSLEPEDTAVYYCAAAAWRVGTYDYRGQGTQVTVSS |  | binding result [5]: binds
